Test results published in paper PMC5864728.

Molecular target: human ICAM-1 extracellular domain with human IgG1 Fc (UniProt P05362)
Assay: flow cytometry on cells
Conditions: HEK293FT cells; co-expressed with β2-WT and GFP-TH; parent: est. 270; read off a plot

Sequence of UniProt P05362 (P05362 whole entry, looked up, the tested form may be a part): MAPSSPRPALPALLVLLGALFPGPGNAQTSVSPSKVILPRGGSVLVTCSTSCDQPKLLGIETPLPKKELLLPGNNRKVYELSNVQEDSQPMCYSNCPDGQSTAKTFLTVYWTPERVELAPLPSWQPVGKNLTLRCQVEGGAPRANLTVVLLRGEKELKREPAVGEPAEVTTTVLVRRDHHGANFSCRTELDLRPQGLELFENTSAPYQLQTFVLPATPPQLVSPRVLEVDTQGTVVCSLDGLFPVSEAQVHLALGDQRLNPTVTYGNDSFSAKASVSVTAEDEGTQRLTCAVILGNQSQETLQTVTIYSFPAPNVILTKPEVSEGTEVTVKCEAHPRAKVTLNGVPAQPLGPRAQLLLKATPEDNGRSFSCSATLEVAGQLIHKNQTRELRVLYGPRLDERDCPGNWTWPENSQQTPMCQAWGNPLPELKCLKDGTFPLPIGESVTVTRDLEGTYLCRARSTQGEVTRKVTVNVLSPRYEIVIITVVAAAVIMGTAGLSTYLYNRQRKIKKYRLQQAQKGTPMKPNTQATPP

response (Normalized MFI in %) | Substance
190 | αL-WT/β2-WT αL:K1097Y
230 | αL-WT/β2-WT αL:L1096Y
